In patent publication US8299028B2, “Chimeric peptide antagonist for GPCR135 or GPCR142” (Janssen Pharmaceutica NV, priority 2007, dated 2012):

Key:
human LGR7 [1] = molecular target: T1, human LGR7 (Homo sapiens, UniProt Q9HBX9); test: Agonist assay, stimulation of β-gal expression in SK-N-MC/CRE-β-gal cells; assay type: cell-based; parameters: expressed in transfected cells; host or cells: SK-N-MC/CRE-β-gal
T1 sequence (Q9HBX9 1-757): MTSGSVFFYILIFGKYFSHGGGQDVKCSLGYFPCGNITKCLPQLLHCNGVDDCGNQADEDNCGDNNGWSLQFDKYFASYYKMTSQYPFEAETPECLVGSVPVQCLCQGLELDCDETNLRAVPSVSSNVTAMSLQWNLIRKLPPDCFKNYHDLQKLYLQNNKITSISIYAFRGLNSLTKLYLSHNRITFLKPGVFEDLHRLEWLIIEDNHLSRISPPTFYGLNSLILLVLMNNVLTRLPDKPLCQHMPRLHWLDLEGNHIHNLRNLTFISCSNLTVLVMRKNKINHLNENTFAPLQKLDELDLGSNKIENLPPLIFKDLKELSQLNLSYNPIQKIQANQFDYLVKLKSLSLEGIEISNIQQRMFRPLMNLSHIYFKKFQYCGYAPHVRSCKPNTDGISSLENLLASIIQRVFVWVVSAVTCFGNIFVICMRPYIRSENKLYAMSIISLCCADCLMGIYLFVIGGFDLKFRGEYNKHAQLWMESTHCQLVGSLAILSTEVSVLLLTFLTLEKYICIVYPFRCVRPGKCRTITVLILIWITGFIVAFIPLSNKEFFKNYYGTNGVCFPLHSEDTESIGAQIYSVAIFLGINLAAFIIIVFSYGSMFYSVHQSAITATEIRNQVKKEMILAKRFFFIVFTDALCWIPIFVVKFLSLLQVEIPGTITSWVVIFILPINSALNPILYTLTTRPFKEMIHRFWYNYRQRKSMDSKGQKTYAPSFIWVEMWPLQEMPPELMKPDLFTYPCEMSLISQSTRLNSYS
Protocol: FIG. 1 provides a characterization of mutant relaxin-3 peptides as ligands for human GPCR135, GPCR142, and LGR7. The truncated peptides were tested for their GPCR135 and GPCR142 agonist activity using SK-N-MC/CRE-β-gal cells expressing either human GPCR135 (A) or GPCR142 (B). Agonists for GPCR135 or GPCR142 inhibit forskolin induced β-galactosidase (β-gal) expression. The LGR7 agonist activity of the truncated peptides was tested using SK-N-MC/CRE-β-gal cells expressing Gαs-linked human LGR7 (C). Human relaxin-3 was used as positive control in both cases. β-gal expression was measured by colorimetric assay using CPRG as the substrate and reading the absorbance at 570 nm.
All peptides were tested for their GPCR135, GPCR142, and LGR7 agonist activities in SK-N-MC/CRE cells expressing the relevant receptors as described by Liu et al., 2005b. […] An increase in cAMP concentration in these cells is associated with increased β-gal expression, which can be measured using Chlorophenol Red-β-D-Galactopyranoside (CRGP) as a substrate and reading the optical absorbance at 570 nm. […] The results were analyzed using GraphPad Prism 4.0 software. […] The agonism and antagonism of peptides for rat LGR7 was assayed using a cAMP luminescence assay. […] The cAMP in the cells was measured with a cAMP detection kit (DiscoveRx HitHunter, Cat. #90-0041) according to the manufacturer's protocol. […]

human GPCR142 = human GPCR142 (Homo sapiens, UniProt Q8TDU9); test: Radioligand binding assay, 125I-R3/I5 tracer, COS-7 cells expressing GPCR142; parameters: expressed in transfected cells; host or cells: COS-7
Sequence of human GPCR142 (Q8TDU9 whole entry, the tested form may be a part): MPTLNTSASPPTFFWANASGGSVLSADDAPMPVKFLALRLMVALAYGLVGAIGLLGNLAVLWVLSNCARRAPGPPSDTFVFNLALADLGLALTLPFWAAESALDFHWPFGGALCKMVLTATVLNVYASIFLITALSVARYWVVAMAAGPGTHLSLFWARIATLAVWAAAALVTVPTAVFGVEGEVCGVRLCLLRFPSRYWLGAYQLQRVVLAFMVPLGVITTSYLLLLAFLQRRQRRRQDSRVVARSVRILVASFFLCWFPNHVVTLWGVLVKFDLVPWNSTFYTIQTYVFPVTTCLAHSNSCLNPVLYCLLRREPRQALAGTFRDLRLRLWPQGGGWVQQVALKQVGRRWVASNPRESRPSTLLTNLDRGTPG
From the text: (§1) COS-7 cells in 24-well tissue culture plates transiently expressing GPCR135, GPCR142 or LGR7 were used in radioligand binding assays as described by Liu et al., 2005a, J. Biol. Chem., 280:292-300. ^125I-Relaxin-3/INSL5 (^125I-R3/I5), a radiolabeled chimeric peptide with the human relaxin-3 B-chain and the human INSL5 A-chain (Liu et al., 2005b), was used at a final concentration of 50 pM as the tracer to characterize the binding properties of all truncated relaxin-3 peptides for GPCR135 and GPCR142. ^125I-relaxin-2 (PerkinElmer Biosciences, Boston) was used at a final concentration of 50 pM to characterize the binding properties of the truncated peptides for the relaxin receptor (LGR7). The results were analyzed by GraphPad Prism 4.0 software (Graphpad, San Diego). The IC50 values, which are the ligand concentrations that inhibited 50% of the maximum specific binding, were then calculated.

human LGR7 [2] = molecular target: T1, human LGR7; test: Radioligand binding assay, 125I-relaxin-2 tracer, COS-7 cells expressing LGR7; parameters: expressed in transfected cells
From the text: as §1

**Q.** Which results are given for “R3(BΔ23-27)R: Relaxin-3 mutant: B-chain SEQ ID NO:15 (Gly23-Trp27 deleted plus C-terminal Arg), relaxin-3 A-chain SEQ ID NO:13”?
**A.** EC50 (human LGR7 [1]; human LGR7 agonist response, mean ± SEM, NA = no agonist activity observed): > 1000 nM; agonist activity at human LGR7 (human LGR7 [1]; stimulation of β-gal expression): no LGR7 agonist activity; affinity of human GPCR142 (human GPCR142): high affinities; affinity of human LGR7 (human LGR7 [2]): low affinity
